Results on three molecules are retold here after PMC12713088, “Arabidopsis TRB Proteins Form Two Closely Related Complexes to Mediate H3K4me3 Demethylation and Transcriptional Repression” (Advanced Science, 2025).

The target of data set [1] is T1, ICU11-GST, recombinant (gel filtration) (Arabidopsis thaliana, UniProt Q3ED68 1-397).
T1 construct: ICU11, Arabidopsis thaliana, AT1G22950; full length in pGEX6P-1; May be the same construct as m20 in some pull-downs; source: E. coli BL21, purified (GST beads)
T1 sequence (looked up): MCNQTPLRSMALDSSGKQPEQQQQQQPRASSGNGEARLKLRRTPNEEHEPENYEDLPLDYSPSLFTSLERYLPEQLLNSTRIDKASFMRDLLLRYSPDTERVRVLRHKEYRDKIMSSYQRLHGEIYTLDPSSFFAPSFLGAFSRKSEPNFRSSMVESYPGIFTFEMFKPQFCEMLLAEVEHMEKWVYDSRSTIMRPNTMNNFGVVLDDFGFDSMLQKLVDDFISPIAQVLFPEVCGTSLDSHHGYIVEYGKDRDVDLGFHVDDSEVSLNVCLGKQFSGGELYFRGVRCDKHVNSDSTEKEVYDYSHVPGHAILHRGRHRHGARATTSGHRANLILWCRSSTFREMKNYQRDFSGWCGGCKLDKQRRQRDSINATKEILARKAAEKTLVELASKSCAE
Kind of data set: SEC; purified proteins mixed in equivalent molar amounts, 4 °C overnight, Superose 6 10/300GL; fractions detected by immunoblotting (GST, FLAG, MBP, HIS). To be noted: both partners purified. (SEC sorts molecules by how far they enter the pores of the column.)

In data set [2] the target is T2, ICU11, recombinant, GST- or MBP-tagged (pull-down) (Arabidopsis thaliana, UniProt Q3ED68 1-397).
T2 construct: ICU11, Arabidopsis thaliana, AT1G22950; full length in pGEX6P-1 (GST) or pET-30a (MBP); source: E. coli BL21, purified (GST beads or MBP beads); not shown: GST or MBP (both forms were made)
T2 sequence (looked up): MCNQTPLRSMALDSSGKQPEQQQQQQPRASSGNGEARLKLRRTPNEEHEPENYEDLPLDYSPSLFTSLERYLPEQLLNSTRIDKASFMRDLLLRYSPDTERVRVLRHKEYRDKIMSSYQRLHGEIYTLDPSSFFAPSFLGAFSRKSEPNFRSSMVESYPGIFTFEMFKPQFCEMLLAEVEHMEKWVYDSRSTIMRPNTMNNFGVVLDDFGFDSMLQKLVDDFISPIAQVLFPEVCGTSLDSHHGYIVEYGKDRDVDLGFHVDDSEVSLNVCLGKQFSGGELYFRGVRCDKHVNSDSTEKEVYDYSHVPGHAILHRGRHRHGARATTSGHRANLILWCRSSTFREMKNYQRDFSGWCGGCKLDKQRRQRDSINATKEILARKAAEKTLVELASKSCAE
Nature of the data set: pull-down; purified proteins mixed in GST-tag lysis buffer (20 mM Tris-HCl pH 7.5, 150 mM NaCl, 1 mM DTT) at 4 °C for 1 h, then GST or MBP beads; immunoblot with GST, MBP or His antibody. The following applies: both partners purified.

Data set [3] has as its target T3, TRB1;HTH1 (Arabidopsis thaliana;Arabidopsis …, UniProt Q8VWK4;Q9SHL4 1-300;1-275, |).
T3 sequence 1: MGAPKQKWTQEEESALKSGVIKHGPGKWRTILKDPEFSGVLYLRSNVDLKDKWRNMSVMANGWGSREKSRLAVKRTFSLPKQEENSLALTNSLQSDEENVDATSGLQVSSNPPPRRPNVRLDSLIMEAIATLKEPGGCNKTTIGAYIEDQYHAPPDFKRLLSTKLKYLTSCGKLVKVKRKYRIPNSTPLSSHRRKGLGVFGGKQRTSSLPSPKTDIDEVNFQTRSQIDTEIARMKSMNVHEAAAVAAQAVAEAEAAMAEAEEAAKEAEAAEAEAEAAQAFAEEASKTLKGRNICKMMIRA
T3 sequence 2: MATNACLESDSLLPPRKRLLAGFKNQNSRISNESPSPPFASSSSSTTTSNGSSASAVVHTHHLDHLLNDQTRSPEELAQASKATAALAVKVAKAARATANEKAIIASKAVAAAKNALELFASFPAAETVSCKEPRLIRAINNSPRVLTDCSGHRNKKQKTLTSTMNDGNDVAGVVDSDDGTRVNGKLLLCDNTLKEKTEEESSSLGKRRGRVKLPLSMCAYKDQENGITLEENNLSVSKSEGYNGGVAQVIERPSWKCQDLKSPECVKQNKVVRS
Kind of data set: ITC; enhanced vs TRB1 alone; Kd only in figure; EMSA: 10 mM Tris-HCl pH 7.5, 50 mM NaCl, 1 mM EDTA, 5% glycerol, 1 mM DTT, 25 C, 30 min, 20 ng DNA + 1 ug protein; ITC: 20 mM Tris-HCl pH 7.5, 150 mM NaCl, 25 C, 5 uM protein, 100 uM DNA. To be noted: protein: recombinant;recombinant; tags: His;His or MBP (EMSA construct not specified); blunt. (In general: Isothermal titration calorimetry measures the heat released or taken up as one component is titrated into another.)

The target of data set [4] is T4, TRB1;NAC050-N (Arabidopsis thaliana;Arabidopsis …, UniProt Q8VWK4;Q9SQX9 1-300;1-184, |).
T4 sequence 1: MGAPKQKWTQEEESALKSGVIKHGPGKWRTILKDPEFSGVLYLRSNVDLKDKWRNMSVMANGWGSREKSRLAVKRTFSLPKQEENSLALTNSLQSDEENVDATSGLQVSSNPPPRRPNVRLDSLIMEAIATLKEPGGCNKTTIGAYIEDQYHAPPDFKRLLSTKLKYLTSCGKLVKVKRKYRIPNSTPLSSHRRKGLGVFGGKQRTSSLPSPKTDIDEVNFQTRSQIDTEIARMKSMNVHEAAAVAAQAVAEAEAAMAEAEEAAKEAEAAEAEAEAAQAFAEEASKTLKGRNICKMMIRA
T4 sequence 2: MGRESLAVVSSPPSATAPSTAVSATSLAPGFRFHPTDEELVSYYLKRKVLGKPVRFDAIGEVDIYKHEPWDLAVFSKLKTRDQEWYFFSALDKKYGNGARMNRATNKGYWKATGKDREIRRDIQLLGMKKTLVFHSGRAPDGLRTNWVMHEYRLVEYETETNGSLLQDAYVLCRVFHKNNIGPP
The description is as above. The following applies: protein: recombinant;recombinant; tags: His;MBP; blunt.

A further data set concerns the target T5, TRB1-GH1Δ (Arabidopsis thaliana, UniProt Q8VWK4 1-300, del114-185).
T5 sequence: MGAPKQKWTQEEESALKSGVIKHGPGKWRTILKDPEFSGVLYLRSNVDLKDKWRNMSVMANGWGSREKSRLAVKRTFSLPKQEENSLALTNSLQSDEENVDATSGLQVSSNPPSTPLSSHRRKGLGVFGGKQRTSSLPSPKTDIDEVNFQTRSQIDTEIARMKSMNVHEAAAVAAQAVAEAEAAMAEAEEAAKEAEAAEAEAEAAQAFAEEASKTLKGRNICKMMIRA
Kind of data set: EMSA; EMSA: 10 mM Tris-HCl pH 7.5, 50 mM NaCl, 1 mM EDTA, 5% glycerol, 1 mM DTT, 25 C, 30 min, 20 ng DNA + 1 ug protein; ITC: 20 mM Tris-HCl pH 7.5, 150 mM NaCl, 25 C, 5 uM protein, 100 uM DNA. To be noted: protein: recombinant; label: Cy5 at 5' of strand 1; blunt.

The target of another data set is T6, TRB2 (Arabidopsis thaliana, UniProt Q9FJW5 1-299).
T6 sequence: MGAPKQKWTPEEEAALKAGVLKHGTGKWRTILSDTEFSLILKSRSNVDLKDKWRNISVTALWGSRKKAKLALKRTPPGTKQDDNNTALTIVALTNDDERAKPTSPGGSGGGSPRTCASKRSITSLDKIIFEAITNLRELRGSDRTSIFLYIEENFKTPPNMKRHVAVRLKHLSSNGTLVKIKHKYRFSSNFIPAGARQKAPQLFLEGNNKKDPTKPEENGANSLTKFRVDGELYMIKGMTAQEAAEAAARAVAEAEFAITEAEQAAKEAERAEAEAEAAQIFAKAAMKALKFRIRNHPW
The data set is described as above. To be noted: protein: recombinant; tags: His; label: Cy5 at 5' of strand 1; blunt.

Another data set has as its target T7, TRB3 (Arabidopsis thaliana, UniProt Q9M2X3 1-295).
T7 sequence: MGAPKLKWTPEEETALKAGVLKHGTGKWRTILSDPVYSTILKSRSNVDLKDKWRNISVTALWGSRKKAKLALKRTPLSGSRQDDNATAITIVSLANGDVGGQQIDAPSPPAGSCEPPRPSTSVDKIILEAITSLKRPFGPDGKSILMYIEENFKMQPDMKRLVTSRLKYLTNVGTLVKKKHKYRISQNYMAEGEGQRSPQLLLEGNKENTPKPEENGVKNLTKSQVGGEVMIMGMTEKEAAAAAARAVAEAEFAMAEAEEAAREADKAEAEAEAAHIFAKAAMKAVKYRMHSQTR
The description is as above. The following applies: protein: recombinant; tags: His; label: Cy5 at 5' of strand 1; blunt.

The target in a further data set is T8, TRB1 (Arabidopsis thaliana, UniProt Q8VWK4 1-300).
T8 sequence: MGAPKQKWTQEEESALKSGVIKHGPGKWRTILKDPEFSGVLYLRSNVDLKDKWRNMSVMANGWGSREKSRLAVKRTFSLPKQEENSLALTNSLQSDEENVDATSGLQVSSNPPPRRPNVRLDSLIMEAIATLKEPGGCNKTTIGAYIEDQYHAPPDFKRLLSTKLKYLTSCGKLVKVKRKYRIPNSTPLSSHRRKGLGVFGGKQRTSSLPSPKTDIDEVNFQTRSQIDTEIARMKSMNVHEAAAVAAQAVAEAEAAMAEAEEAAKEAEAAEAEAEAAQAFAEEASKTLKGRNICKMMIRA
The data set is described as above. To be noted: protein: recombinant; tags: His; label: Cy5 at 5' of strand 1; blunt.

Another data set concerns the target T9, TRB1-MybΔ-GH1Δ (Arabidopsis thaliana, UniProt Q8VWK4 61-300, del1-60;del114-185).
T9 sequence: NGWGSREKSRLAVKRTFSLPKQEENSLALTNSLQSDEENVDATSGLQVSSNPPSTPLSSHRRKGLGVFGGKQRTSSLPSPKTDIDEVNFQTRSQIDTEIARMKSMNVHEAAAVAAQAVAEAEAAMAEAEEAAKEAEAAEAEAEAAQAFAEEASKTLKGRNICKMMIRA
The description is as above. The following applies: protein: recombinant; label: Cy5 at 5' of strand 1; blunt.

For the next data set, the target named is T10, TRB1-1 (Arabidopsis thaliana, UniProt Q8VWK4 1-185).
T10 sequence: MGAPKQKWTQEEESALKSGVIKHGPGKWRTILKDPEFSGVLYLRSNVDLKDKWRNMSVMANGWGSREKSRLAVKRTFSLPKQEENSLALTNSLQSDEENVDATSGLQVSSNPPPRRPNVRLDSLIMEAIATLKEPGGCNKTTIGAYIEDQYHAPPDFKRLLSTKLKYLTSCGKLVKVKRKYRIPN
The description is as above. The following applies: protein: recombinant; tags: His; label: Cy5 at 5' of strand 1; blunt.

For data set [5], the target named is T3, TRB1;HTH1. Kind of data set: EMSA; larger complex, enhanced vs TRB1 alone; EMSA: 10 mM Tris-HCl pH 7.5, 50 mM NaCl, 1 mM EDTA, 5% glycerol, 1 mM DTT, 25 C, 30 min, 20 ng DNA + 1 ug protein; ITC: 20 mM Tris-HCl pH 7.5, 150 mM NaCl, 25 C, 5 uM protein, 100 uM DNA. The following applies: protein: recombinant;recombinant; tags: His;His or MBP (EMSA construct not specified); label: Cy5 at 5' of strand 1; blunt. On the technique in general: In EMSA bound probe runs differently from free probe, usually more slowly.

Data set [6] addresses T4, TRB1;NAC050-N. The data set is described as above. The following applies: protein: recombinant;recombinant; tags: His;MBP; label: Cy5 at 5' of strand 1; blunt.

B1: TRB1-His, recombinant (natural protein, Arabidopsis thaliana, UniProt Q8VWK4 1-300, looked up)
chain: MGAPKQKWTQEEESALKSGVIKHGPGKWRTILKDPEFSGVLYLRSNVDLKDKWRNMSVMANGWGSREKSRLAVKRTFSLPKQEENSLALTNSLQSDEENVDATSGLQVSSNPPPRRPNVRLDSLIMEAIATLKEPGGCNKTTIGAYIEDQYHAPPDFKRLLSTKLKYLTSCGKLVKVKRKYRIPNSTPLSSHRRKGLGVFGGKQRTSSLPSPKTDIDEVNFQTRSQIDTEIARMKSMNVHEAAAVAAQAVAEAEAAMAEAEEAAKEAEAAEAEAEAAQAFAEEASKTLKGRNICKMMIRA
notes: TRB1, Arabidopsis thaliana, AT1G49950; full length in the vector pSMT3; pSMT3 is recalled to add an N-terminal His-SUMO; source: E. coli BL21, purified (His beads)
For the molecule B1, the binding result in data set [1] and in [2] was “binds” each time.

B2: Probe 1 for ITC (dsDNA)
DNA 1: ATCGAATTTAGGGCAAAATG
DNA 2: CATTTTGCCCTAAATTCGAT
On to B2, for which the binding result with TRB1;HTH1 [3] and in the data set with TRB1;NAC050-N [4] was “binds” each time.

B3: Probe 1 (P1) (dsDNA)
DNA 1: ATCGAATTTAGGGCAAAATG
DNA 2: CATTTTGCCCTAAATTCGAT
With B3, the binding result with TRB1-GH1Δ was “binds”; with TRB2, “binds”; with TRB3, “binds”; with TRB1, “binds”; in the data set with TRB1-MybΔ-GH1Δ it was “no binding”; with TRB1-1, “binds”. For the same molecule, the binding result with TRB1;HTH1 [5] and with TRB1;NAC050-N [6] was “binds” in each case.
